US20160137740A1 (AstraZeneca / MedImmune, published 2016)
Several values for one entry are separate records, joined by “and”; a condition that tells them apart may be missing. Equal entries are not always repeated.

What was measured:
[1] = target: T1, Human OX40 (human, UniProt P43489 29-277); test: cell-based or functional assay
T1 sequence: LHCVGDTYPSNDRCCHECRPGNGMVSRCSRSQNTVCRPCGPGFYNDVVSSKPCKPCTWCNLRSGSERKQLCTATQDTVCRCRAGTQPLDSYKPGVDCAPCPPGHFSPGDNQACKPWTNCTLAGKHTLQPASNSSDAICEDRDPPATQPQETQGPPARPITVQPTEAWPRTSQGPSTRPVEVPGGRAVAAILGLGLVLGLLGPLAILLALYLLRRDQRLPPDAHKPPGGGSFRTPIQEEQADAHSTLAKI

[2] = target: T1, Human OX40; test: cell-based or functional assay; remark: listed apart in the source
[3] = target: cyno/rhesus OX40 expressed on Jurkat NFκB-luciferase reporter clone B2 (cynomolgus/rhesus monkey); test: cell-based or functional assay
[4] = target: T2, KO_CRD3 (human OX40 aa 108 to 146 replaced with the mouse counterparts) (human; mouse, UniProt P43489 29-277); test: flow cytometry, transfected 293F cells, column KO_CRD3
T2 construct: Chimeric variant with a transmembrane domain, transient on 293F cells
T2 chain: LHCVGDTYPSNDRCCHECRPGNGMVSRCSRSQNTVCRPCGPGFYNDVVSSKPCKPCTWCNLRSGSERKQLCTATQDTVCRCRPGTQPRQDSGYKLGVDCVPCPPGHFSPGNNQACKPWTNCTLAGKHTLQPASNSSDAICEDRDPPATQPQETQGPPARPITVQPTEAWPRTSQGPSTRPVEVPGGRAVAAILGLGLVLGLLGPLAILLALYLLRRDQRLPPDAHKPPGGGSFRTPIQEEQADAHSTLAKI

[5] = target: T3, KO_L116+A126 (human OX40 aa Leu116 and Ala126 replaced with the mouse counterparts) (human, UniProt P43489 29-277); test: flow cytometry, transfected 293F cells, column KO_L116A126 [FIGURE 32B con't]
T3 construct: Variant with a transmembrane domain, transient on 293F cells
T3 chain: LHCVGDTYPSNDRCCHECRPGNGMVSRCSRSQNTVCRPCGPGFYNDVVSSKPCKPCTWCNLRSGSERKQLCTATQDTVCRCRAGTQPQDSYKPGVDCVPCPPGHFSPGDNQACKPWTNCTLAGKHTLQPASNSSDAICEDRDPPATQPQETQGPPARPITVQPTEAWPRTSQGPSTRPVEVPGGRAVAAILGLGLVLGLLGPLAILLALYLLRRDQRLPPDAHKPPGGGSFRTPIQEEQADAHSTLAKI
Procedure: Forty-eight hours after transfection, HEK293F cells were incubated with 1 μg/mL of OX40mAb24 for 1 hour on ice in PBS. To detect bound OX40mAb24 by flow cytometry, the cells were washed 3-times with cold PBS, incubated with 1 μg/mL of Alexa480-conjugated anti-human IgG antibody for 1 hr on ice, and then analyzed using the LSRII flow cytometer.
The expression levels of all chimeric OX40 variants were also monitored by flow cytometry; the cells were incubated with a mixture of sheep anti-human OX40 and goat anti-mouse OX40 polyclonal antibodies at 1 μg/mL in PBS for 1 hour on ice. Cells were washed 3-times with cold PBS, and then incubated with a mixture of Alexa480-conjugated anti-goat and anti-sheep IgG polyclonal antibodies. After washing 3 times with cold PBS, cells were analyzed with the LSRII flow cytometer.

[6] = target: T1, Human OX40; test: flow cytometry on activated primary human CD4+ T cells; 50% receptor occupancy calculated from Kd
Procedure: (§1) OX40mAb24 (10 μg/mL) or 9B12 (10 μg/mL) was diluted over a 17 point 2-fold dilution series. OX40mAb24 was added to 100,000 cells (activated primary CD4⁺ T cells or human OX40-overexpressing Jurkat NFkB-luciferase clone 64 cells) per well and incubated for one hour at 4° C. For background binding subtraction, cells were incubated in the presence of secondary antibody alone. […] Following secondary antibody incubation, cells were washed and suspended in 100 μL FACS buffer for flow cytometry analysis on a BD LSRII flow cytometer as described below.

[7] = target: T4, Rhesus monkey OX40 (rhesus monkey); test: flow cytometry, equilibrium binding to activated primary rhesus CD4+ T cells; mean of 2 experiments (StdErr)
T4 construct: also called rhesus macaque OX40

[8] = target: T5, Cynomolgus monkey OX40 (cynomolgus monkey); test: flow cytometry, equilibrium binding to activated primary cynomolgus CD4+ T cells; mean of 2 experiments (StdErr)
T5 construct: also called cyno OX40
Procedure: Cyno CD4⁺ T cell isolation was performed with a Miltenyi non-human primate kit according to manufacturer's instructions, then CD4⁺ T cells counted on a ViCell counter and suspended at 1×10⁶ per mL in complete medium as described above.
Cyno CD4⁺ T cells (1×10⁶ per mL in complete medium) were incubated for 48 hours in a T75 cell culture flask with 2 μg/mL PHA-L and 20 IU/mL IL-2, to activate T cells and induce OX40 expression. Activated CD4⁺ T cells were removed from the flask and 100,000 cells were transferred to each well of a non-tissue culture treated 96-well round-bottom plate for binding assays and washed with 200 μL FACS buffer. Binding was performed with 10 μg/mL OX40mAb24 or 9B12 serially diluted 4-fold in FACS buffer for an 11-point data curve, or both R347 human IgG1 or mouse IgG1 clone MOPC-21 (negative controls) serially diluted 6-fold for a 3 point data curve. OX40mAb24, 9B12 or control protein was added to CD4⁺ T cells and incubated. […] Following secondary antibody incubation, cells were processed for flow cytometry as described in Section 2.3.

[9] = target: T1, Human OX40; test: flow cytometry on activated primary human CD4+ T cells, AlexaFluor 488 anti-mouse IgG secondary [FIGURE 2A-D, con't.), panel C]
Procedure: as §1

[10] = target: T1, Human OX40; test: flow cytometry, equilibrium binding to human OX40-overexpressing Jurkat NFkB-luciferase clone 64 cells; mean of 3 experiments (StdErr)
Procedure: Human OX40-overexpressing Jurkat NFκB-luciferase clone 64 cells were cultured in complete RPMI+10% FBS prior to binding experiments, without the need for activation.
as §1

EC50, IL10 release, donor 367 [1]: 0.198 nM | EC50, IL10 release, donor 645 [1]: 1.22 nM | EC50, IL10 release, donor 651 [1]: 0.796 nM | mean EC50, NFκB-luciferase 2-cell assay, human Raji B cells + human OX40 Jurkat clone 64 [2]: 4.68 nM | EC50, NFκB-luciferase 2-cell assay, rhesus RBC-lysed whole blood + cyno/rhesus OX40 Jurkat clone B2 [3]: 6.05 nM | binding result [4]: no binding | binding result [5]: no binding | EC50 [6]: 0.669 nM | Kd [7]: 0.713 nM | Kd [8]: 1.09 nM | EC50 (read off the curve) [9]: ~1 nM and ~0.5 nM | Kd [10]: 0.726 nM
B1: 9B12 (antibody, mouse IgG1, V domains shown)
VH: EVQLQESGPSLVKPSQTLSLTCSVTGDSFTSGYWNWIRKFPGNRLEYMGYISYNGITYHNPSLKSRISITRDTSKNHYYLQLNSVTTEDTATYFCARYRYDYDGGHAMDYWGQGTLVTVSS
VL: DIQMTQTTSSLSASLGDRVTISCRASQDISNYLNWYQQKPDGTVKLLIYYTSKLHSGVPSRFSGSGSRTDYSLTITDLDQEDIATYFCQQGSALPWTFGQGTKVEIKR
notes: mouse IgG1 kappa; also called murine mAb 9B12; mouse anti-human OX40 IgG1κ monoclonal antibody
